Source: patent US20230272029A1, “CO-AGONISTS AT GLP-1 AND GIP RECEPTORS SUITABLE FOR ORAL DELIVERY” (Novo Nordisk A/S, priority 2020, published 2023)
Starred links: 1 amine or outer side, 2 acyl side, 3 side chain; linkers in the order of their positions; H or OH if unused. Non-standard residues stand in square brackets, D forms with d. Groups on a side chain read outwards from the residue. No end group written: not given here. *: point of attachment. C18 diacid = O=C(O)CCCCCCCCCCCCCCCCC(=O)*; γGlu = O=C(O)[C@H](CCC(=O)[*:2])N[*:1]; εLys = N[C@@H](CCCCN[*:1])C(=O)[*:2]; Aib = CC(C)(N)C(=O)O

How the values were obtained:
human GLP-1 receptor = human GLP-1 receptor (human, UniProt P43220 24-463); assay: cell-based or functional assay
human GIP receptor = biological target: T1, human GIP receptor (human, UniProt P48546 22-466); assay: cell-based or functional assay
T1 sequence (looked up): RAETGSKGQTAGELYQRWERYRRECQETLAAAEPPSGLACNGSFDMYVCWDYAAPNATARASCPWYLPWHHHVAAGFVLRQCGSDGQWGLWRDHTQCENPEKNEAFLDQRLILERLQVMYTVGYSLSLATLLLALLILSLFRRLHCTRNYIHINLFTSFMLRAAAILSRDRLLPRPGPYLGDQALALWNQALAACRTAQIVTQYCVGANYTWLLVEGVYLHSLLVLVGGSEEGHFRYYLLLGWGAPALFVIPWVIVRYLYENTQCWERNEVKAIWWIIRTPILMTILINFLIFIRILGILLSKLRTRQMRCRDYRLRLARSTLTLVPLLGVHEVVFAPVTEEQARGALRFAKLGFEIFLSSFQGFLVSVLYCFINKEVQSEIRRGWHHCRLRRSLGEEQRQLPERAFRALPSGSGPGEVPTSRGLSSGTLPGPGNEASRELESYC

B1: Compound No. 33 (peptide)
peptide: Y[Aib]EGTVTSDYSILLEK([εLys-εLys-γGlu-C18 diacid])QAAREFINWLLAGGPSSGAPPPS-OH
modifications: N-terminus assumed
SMILES: CC[C@H](C)[C@H](NC(=O)[C@H](Cc1ccccc1)NC(=O)[C@H](CCC(=O)O)NC(=O)[C@H](CCCNC(=N)N)NC(=O)[C@H](C)NC(=O)[C@H](C)NC(=O)[C@H](CCC(N)=O)NC(=O)[C@H](CCCCNC(=O)[C@@H](N)CCCCNC(=O)[C@@H](N)CCCCNC(=O)CC[C@H](NC(=O)CCCCCCCCCCCCCCCCC(=O)O)C(=O)O)NC(=O)[C@H](CCC(=O)O)NC(=O)[C@H](CC(C)C)NC(=O)[C@H](CC(C)C)NC(=O)[C@@H](NC(=O)[C@H](CO)NC(=O)[C@H](Cc1ccc(O)cc1)NC(=O)[C@H](CC(=O)O)NC(=O)[C@H](CO)NC(=O)[C@@H](NC(=O)[C@@H](NC(=O)[C@@H](NC(=O)CNC(=O)[C@H](CCC(=O)O)NC(=O)C(C)(C)NC(=O)[C@@H](N)Cc1ccc(O)cc1)[C@@H](C)O)C(C)C)[C@@H](C)O)[C@@H](C)CC)C(=O)N[C@@H](CC(N)=O)C(=O)N[C@@H](Cc1c[nH]c2ccccc12)C(=O)N[C@@H](CC(C)C)C(=O)N[C@@H](CC(C)C)C(=O)N[C@@H](C)C(=O)NCC(=O)NCC(=O)N1CCC[C@H]1C(=O)N[C@@H](CO)C(=O)N[C@@H](CO)C(=O)NCC(=O)N[C@@H](C)C(=O)N1CCC[C@H]1C(=O)N1CCC[C@H]1C(=O)N1CCC[C@H]1C(=O)N[C@@H](CO)C(=O)O
Human GLP-1 receptor
  hGLP-1R, CRE Luc 0% HSA EC50 (pM): 14.8 pM
  hGLP-1R, CRE Luc 1% HSA EC50 (pM): 361 pM
Human GIP receptor
  hGIPR, CRE Luc 0% HSA EC50 (pM): 2.9 pM
  hGIPR, CRE Luc 1% HSA EC50 (pM): 103 pM

B2: Compound No. 44 (peptide)
peptide: Y[Aib]EGTFTSDYSILLEEQAAREFINWLLAGGPSK([εLys-εLys-γGlu-C18 diacid])GAPPPS-OH
modifications: N-terminus assumed
SMILES: CC[C@H](C)[C@H](NC(=O)[C@H](Cc1ccccc1)NC(=O)[C@H](CCC(=O)O)NC(=O)[C@H](CCCNC(=N)N)NC(=O)[C@H](C)NC(=O)[C@H](C)NC(=O)[C@H](CCC(N)=O)NC(=O)[C@H](CCC(=O)O)NC(=O)[C@H](CCC(=O)O)NC(=O)[C@H](CC(C)C)NC(=O)[C@H](CC(C)C)NC(=O)[C@@H](NC(=O)[C@H](CO)NC(=O)[C@H](Cc1ccc(O)cc1)NC(=O)[C@H](CC(=O)O)NC(=O)[C@H](CO)NC(=O)[C@@H](NC(=O)[C@H](Cc1ccccc1)NC(=O)[C@@H](NC(=O)CNC(=O)[C@H](CCC(=O)O)NC(=O)C(C)(C)NC(=O)[C@@H](N)Cc1ccc(O)cc1)[C@@H](C)O)[C@@H](C)O)[C@@H](C)CC)C(=O)N[C@@H](CC(N)=O)C(=O)N[C@@H](Cc1c[nH]c2ccccc12)C(=O)N[C@@H](CC(C)C)C(=O)N[C@@H](CC(C)C)C(=O)N[C@@H](C)C(=O)NCC(=O)NCC(=O)N1CCC[C@H]1C(=O)N[C@@H](CO)C(=O)N[C@@H](CCCCNC(=O)[C@@H](N)CCCCNC(=O)[C@@H](N)CCCCNC(=O)CC[C@H](NC(=O)CCCCCCCCCCCCCCCCC(=O)O)C(=O)O)C(=O)NCC(=O)N[C@@H](C)C(=O)N1CCC[C@H]1C(=O)N1CCC[C@H]1C(=O)N1CCC[C@H]1C(=O)N[C@@H](CO)C(=O)O
Human GLP-1 receptor
  hGLP-1R, CRE Luc 0% HSA EC50 (pM): 4.2 pM
  hGLP-1R, CRE Luc 1% HSA EC50 (pM): 241 pM
Human GIP receptor
  hGIPR, CRE Luc 0% HSA EC50 (pM): 5.7 pM
  hGIPR, CRE Luc 1% HSA EC50 (pM): 365 pM

B3: Compound No. 43 (peptide)
peptide: Y[Aib]EGTFTSDYSILLEEQAAREFIEWLLAGGPSK([εLys-εLys-γGlu-C18 diacid])GAPPPS-OH
modifications: N-terminus assumed
SMILES: CC[C@H](C)[C@H](NC(=O)[C@H](Cc1ccccc1)NC(=O)[C@H](CCC(=O)O)NC(=O)[C@H](CCCNC(=N)N)NC(=O)[C@H](C)NC(=O)[C@H](C)NC(=O)[C@H](CCC(N)=O)NC(=O)[C@H](CCC(=O)O)NC(=O)[C@H](CCC(=O)O)NC(=O)[C@H](CC(C)C)NC(=O)[C@H](CC(C)C)NC(=O)[C@@H](NC(=O)[C@H](CO)NC(=O)[C@H](Cc1ccc(O)cc1)NC(=O)[C@H](CC(=O)O)NC(=O)[C@H](CO)NC(=O)[C@@H](NC(=O)[C@H](Cc1ccccc1)NC(=O)[C@@H](NC(=O)CNC(=O)[C@H](CCC(=O)O)NC(=O)C(C)(C)NC(=O)[C@@H](N)Cc1ccc(O)cc1)[C@@H](C)O)[C@@H](C)O)[C@@H](C)CC)C(=O)N[C@@H](CCC(=O)O)C(=O)N[C@@H](Cc1c[nH]c2ccccc12)C(=O)N[C@@H](CC(C)C)C(=O)N[C@@H](CC(C)C)C(=O)N[C@@H](C)C(=O)NCC(=O)NCC(=O)N1CCC[C@H]1C(=O)N[C@@H](CO)C(=O)N[C@@H](CCCCNC(=O)[C@@H](N)CCCCNC(=O)[C@@H](N)CCCCNC(=O)CC[C@H](NC(=O)CCCCCCCCCCCCCCCCC(=O)O)C(=O)O)C(=O)NCC(=O)N[C@@H](C)C(=O)N1CCC[C@H]1C(=O)N1CCC[C@H]1C(=O)N1CCC[C@H]1C(=O)N[C@@H](CO)C(=O)O
Human GLP-1 receptor
  hGLP-1R, CRE Luc 0% HSA EC50 (pM): 4 pM
  hGLP-1R, CRE Luc 1% HSA EC50 (pM): 360 pM
Human GIP receptor
  hGIPR, CRE Luc 0% HSA EC50 (pM): 5.6 pM
  hGIPR, CRE Luc 1% HSA EC50 (pM): 444 pM

B4: Compound No. 34 (peptide)
peptide: Y[Aib]EGTFTSDYSIILEK([εLys-εLys-γGlu-C18 diacid])QAAREFINWLLAGGPSSGAPPPS-OH
modifications: N-terminus assumed
SMILES: CC[C@H](C)[C@H](NC(=O)[C@H](Cc1ccccc1)NC(=O)[C@H](CCC(=O)O)NC(=O)[C@H](CCCNC(=N)N)NC(=O)[C@H](C)NC(=O)[C@H](C)NC(=O)[C@H](CCC(N)=O)NC(=O)[C@H](CCCCNC(=O)[C@@H](N)CCCCNC(=O)[C@@H](N)CCCCNC(=O)CC[C@H](NC(=O)CCCCCCCCCCCCCCCCC(=O)O)C(=O)O)NC(=O)[C@H](CCC(=O)O)NC(=O)[C@H](CC(C)C)NC(=O)[C@@H](NC(=O)[C@@H](NC(=O)[C@H](CO)NC(=O)[C@H](Cc1ccc(O)cc1)NC(=O)[C@H](CC(=O)O)NC(=O)[C@H](CO)NC(=O)[C@@H](NC(=O)[C@H](Cc1ccccc1)NC(=O)[C@@H](NC(=O)CNC(=O)[C@H](CCC(=O)O)NC(=O)C(C)(C)NC(=O)[C@@H](N)Cc1ccc(O)cc1)[C@@H](C)O)[C@@H](C)O)[C@@H](C)CC)[C@@H](C)CC)C(=O)N[C@@H](CC(N)=O)C(=O)N[C@@H](Cc1c[nH]c2ccccc12)C(=O)N[C@@H](CC(C)C)C(=O)N[C@@H](CC(C)C)C(=O)N[C@@H](C)C(=O)NCC(=O)NCC(=O)N1CCC[C@H]1C(=O)N[C@@H](CO)C(=O)N[C@@H](CO)C(=O)NCC(=O)N[C@@H](C)C(=O)N1CCC[C@H]1C(=O)N1CCC[C@H]1C(=O)N1CCC[C@H]1C(=O)N[C@@H](CO)C(=O)O
Human GLP-1 receptor
  hGLP-1R, CRE Luc 0% HSA EC50 (pM): 6 pM
  hGLP-1R, CRE Luc 1% HSA EC50 (pM): 186 pM
Human GIP receptor
  hGIPR, CRE Luc 0% HSA EC50 (pM): 8.3 pM
  hGIPR, CRE Luc 1% HSA EC50 (pM): 213 pM
